The supplement of paper PMC9233669
Variants at the floor of the assay were thinned out.

Tests used:
biotinyl-Leu-oxazolone = assay: self-aminoacylation, catalytic enhancement (BLO) (fold over background); higher = more active; k-Seq, kA / k0A0; sequences stand for … in GGGAAUGGAUCCACAUCUACGAAUUC…UUCACUGCAGACUUGACGAAGCUG
In short: (§1)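 The uncatalyzed rate is the low-activity peak of a bimodal Gaussian fit, and catalytic enhancement is median kA divided by it. The kA values came from pseudo-first-order fits, with 1000 bootstraps, of per-sequence fraction reacted measured by streptavidin capture, triplicate qPCR and Illumina sequencing. Mutagenized RNA pools with a 21-nt variable region (0.43 μM) were reacted with each biotinyl-aminoacyl-oxazolone at 2–1250 μM in 50 μL HEPES/NaCl/KCl/MgCl2/CaCl2 buffer with 5% acetonitrile, pH 6.9–7.0, for 90 minutes at room temperature.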

biotinyl-Val-oxazolone = assay: self-aminoacylation, catalytic enhancement (BVO) (fold over background); higher = more active; k-Seq, kA / k0A0; sequences stand for … in GGGAAUGGAUCCACAUCUACGAAUUC…UUCACUGCAGACUUGACGAAGCUG
In short: as §1

biotinyl-Trp-oxazolone = assay: self-aminoacylation, catalytic enhancement (BWO) (fold over background); higher = more active; k-Seq, kA / k0A0; sequences stand for … in GGGAAUGGAUCCACAUCUACGAAUUC…UUCACUGCAGACUUGACGAAGCUG
In short: as §1

biotinyl-Ile-oxazolone = assay: self-aminoacylation, catalytic enhancement (BIO) (fold over background); higher = more active; k-Seq, kA / k0A0; sequences stand for … in GGGAAUGGAUCCACAUCUACGAAUUC…UUCACUGCAGACUUGACGAAGCUG
In short: as §1

biotinyl-Met-oxazolone = assay: self-aminoacylation, catalytic enhancement (BMO) (fold over background); higher = more active; k-Seq, kA / k0A0; sequences stand for … in GGGAAUGGAUCCACAUCUACGAAUUC…UUCACUGCAGACUUGACGAAGCUG
In short: as §1

biotinyl-Phe-oxazolone = assay: self-aminoacylation, catalytic enhancement (BFO) (fold over background); higher = more active; k-Seq, kA / k0A0; sequences stand for … in GGGAAUGGAUCCACAUCUACGAAUUC…UUCACUGCAGACUUGACGAAGCUG
In short: as §1

Sequence	self-aminoacylation (biotinyl-Leu-oxazolone)	self-aminoacylation (biotinyl-Val-oxazolone)	self-aminoacylation (biotinyl-Trp-oxazolone)	self-aminoacylation (biotinyl-Ile-oxazolone)	self-aminoacylation (biotinyl-Met-oxazolone)	self-aminoacylation (biotinyl-Phe-oxazolone)
AUCCACCUAGGUCAUCGGGAG [Fam2.2 aminoacylation ribozyme variant]	1.68	2.17	2.19	1.88	1.65	1.03
AUCCACCUAGGUCAUCGGGUC [Fam2.2 aminoacylation ribozyme variant]	1.93	2.04	2.68	1.72	2.25	5.86
AUCCACCUAGGUCAUCGGGUU [Fam2.2 aminoacylation ribozyme variant]	19	7.64	12	9.74	14.3	71.1
AUCCACCUAGGUCAUCUGGUG [Fam2.2 aminoacylation ribozyme variant]	3.74	2.28	2.77	2.26	2.77	26.4
AUCCACCUAGGUCAUGGGGUG [Fam2.2 aminoacylation ribozyme variant]	6.65	3.77	5.9	3.54	5.64	56.5
AUCCACCUCGGUCAUCGGGUG [Fam2.2 aminoacylation ribozyme variant]	7.66	7	7.66	5.06	7.86	72.4
AUCCACCUUGGUCAUCGGGUG [Fam2.2 aminoacylation ribozyme variant]	7.29	5.35	6.99	4.12	6.42	45.5
AUCCCCCUGGUCAUCGAGUGA [Fam2.1 aminoacylation ribozyme variant]	6.5	4.12	7.31	3.85	5.79	45.2
AUCGACCUAGGUCAUCGGGUG [Fam2.2 aminoacylation ribozyme variant]	6.35	4.44	6.33	4.48	5.83	8.6
AUGAACCUGGUCAUCGAGUGA [Fam2.1 aminoacylation ribozyme variant]	6.61	3.17	6.4	3.31	5.7	5.16
AUGACCAUGGUCAUCGAGUGA [Fam2.1 aminoacylation ribozyme variant]	8.09	4.28	9.59	4.29	7.94	22.1
AUGACCCAGGUCAUCGAGUGA [Fam2.1 aminoacylation ribozyme variant]	5.25	2.5	5.92	2.5	4.72	17.9
AUGACCCCGGUCAUCGAGUGA [Fam2.1 aminoacylation ribozyme variant]	8.55	3.3	6.78	3.51	6.75	39.9
AUGACCCUGCUCAUCGAGUGA [Fam2.1 aminoacylation ribozyme variant]	1.95	1.43	2.47	1.36	1.83	1.52
AUGACCCUGGGCAUCGAGUGA [Fam2.1 aminoacylation ribozyme variant]	8.34	3.32	7.35	3.97	7.08	42.4
AUGACCCUGGUCAGCGAGUGA [Fam2.1 aminoacylation ribozyme variant]	5.66	2.94	6.08	3.46	4.85	24.2
AUGACCCUGGUCAUCGAGAGA [Fam2.1 aminoacylation ribozyme variant]	1.52	1.34	1.36	1.28	1.47	2.57
AUGACCCUGGUCAUCGUGUGA [Fam2.1 aminoacylation ribozyme variant]	2.88	1.5	2.61	1.4	2.76	17.4
AUGACCCUGGUCAUCUAGUGA [Fam2.1 aminoacylation ribozyme variant]	8.57	3.7	9.46	3.75	8.18	63.5
AUGACGCUGGUCAUCGAGUGA [Fam2.1 aminoacylation ribozyme variant]	5.8	3.4	7.12	3.6	6.65	36.8
AUGCACCCAGGUCAUCGGGUG [Fam2.2 aminoacylation ribozyme variant]	4.35	3.89	5.32	3.29	3.42	21
AUGCACCGAGGUCAUCGGGUG [Fam2.2 aminoacylation ribozyme variant]	6.58	3.66	6.46	3.81	5.79	40.4
AUGCACCUAAGUCAUCGGGUG [Fam2.2 aminoacylation ribozyme variant]	10.5	4.84	8.67	5.66	8.76	58.2
AUGCACCUAGGCCAUCGGGUG [Fam2.2 aminoacylation ribozyme variant]	4.53	3.41	4.46	3.32	3.87	27.6
AUGCACCUAGGUCAGCGGGUG [Fam2.2 aminoacylation ribozyme variant]	4.65	3.02	5.27	3.27	3.65	18.1
AUGCACCUAGGUCAUCGCGUG [Fam2.2 aminoacylation ribozyme variant]	12	5.84	11	5.09	8.45	56

Sequence	self-aminoacylation (biotinyl-Leu-oxazolone)	self-aminoacylation (biotinyl-Val-oxazolone)	self-aminoacylation (biotinyl-Trp-oxazolone)	self-aminoacylation (biotinyl-Ile-oxazolone)	self-aminoacylation (biotinyl-Met-oxazolone)	self-aminoacylation (biotinyl-Phe-oxazolone)
AUGCACUUAGGUCAUCGGGUG [Fam2.2 aminoacylation ribozyme variant]	10.6	5.03	7.92	5.29	8.73	62.8
AUGCCCCUAGGUCAUCGGGUG [Fam2.2 aminoacylation ribozyme variant]	11.1	5.39	7.6	5.52	8.48	63.9
AUGUUUGCUAAAAGUCGCAAG [Fam3.1 aminoacylation ribozyme variant]	1.83	1.47	2.45	1.56	1.69	4.95
AUGUUUGCUAAUAGUGGCAAG [Fam3.1 aminoacylation ribozyme variant]	0.588	0.643	0.491	0.646	0.483	1.22
AUGUUUGGUAAUAGUCGCAAG [Fam3.1 aminoacylation ribozyme variant]	1.84	1.51	2.15	1.92	1.79	3.16
AUUAAACUGGUCAUCGAGUGA [Fam2.1 aminoacylation ribozyme variant]	4.35	2.42	6.94	2.71	4.15	4.94
AUUAACCCAGGUCAUCGGGUG [Fam2.2 aminoacylation ribozyme variant]	8.17	3.58	5.58	4.38	6.61	36.2
AUUAACCGAGGUCAUCGGGUG [Fam2.2 aminoacylation ribozyme variant]	7.86	5.32	7.45	4.6	7.9	48.9
AUUAACCUAAGUCAUCGGGUG [Fam2.2 aminoacylation ribozyme variant]	12.1	4.74	7.95	4.9	8.41	63.5
AUUAACCUAGGUCAACGGGUG [Fam2.2 aminoacylation ribozyme variant]	3.59	1.89	3	2.13	3.36	20.5
AUUAACCUAGGUCAUCGCGUG [Fam2.2 aminoacylation ribozyme variant]	10.2	4.66	7.14	4.57	6.95	59.2
AUUAACCUAGGUCAUCGGGCG [Fam2.2 aminoacylation ribozyme variant]	5.44	2.63	2.17	2.55	3.99	4.51
AUUAACCUAGGUCAUCGGGGG [Fam2.2 aminoacylation ribozyme variant]	3.88	2.1	2.88	2.68	3.77	3.87
AUUAACCUAGGUCAUCGGGUG [Fam2.2 aminoacylation ribozyme variant]	46.3	15.8	22.8	19.7	33.2	248
AUUAACCUAGUCAUCGAGUGA [Fam2.1 aminoacylation ribozyme variant]	5.13	2.96	7.12	2.94	4.95	15.5
AUUAACCUGAUCAUCGAGUGA [Fam2.1 aminoacylation ribozyme variant]	10.2	4.67	13.7	4.54	9.97	41.3
AUUAACCUGGGUCAUCGGGUG [Fam2.2 aminoacylation ribozyme variant]	15.6	6.35	11.4	6.99	13.4	39.6
AUUAACCUGGUCACCGAGUGA [Fam2.1 aminoacylation ribozyme variant]	8.22	3.69	7.92	3.88	6.76	40.8
AUUAACCUGGUCAGCGAGUGA [Fam2.1 aminoacylation ribozyme variant]	4.19	2.81	4.66	2.57	4.41	19.5
AUUAACCUGGUCAUCGAGAGA [Fam2.1 aminoacylation ribozyme variant]	0.844	0.783	0.872	0.888	0.749	0.933
AUUAACCUGGUCAUCGCGUGA [Fam2.1 aminoacylation ribozyme variant]	19.1	7.74	21.5	8.07	17.2	126
AUUAACCUUGGUCAUCGGGUG [Fam2.2 aminoacylation ribozyme variant]	8.28	4.16	7.04	3.91	6.37	41.7
AUUAACGUAGGUCAUCGGGUG [Fam2.2 aminoacylation ribozyme variant]	3.84	3.05	3.61	2.52	4.05	42.1
AUUAACGUGGUCAUCGAGUGA [Fam2.1 aminoacylation ribozyme variant]	4.72	2.75	6.07	2.95	4.88	18.6
AUUAACUUGGUCAUCGAGUGA [Fam2.1 aminoacylation ribozyme variant]	4.16	2.48	4.83	2.9	3.67	3.99
